Data on one molecule can be found in US20220089743A1.

What all share (assay): cell-based or functional assay
Test [1] concerns the target HLA-DQ2.5 on IHW09023 cells loaded with 33 mer gliadin peptide (human; wheat).
The target of test [2] is HLA-DQ2.5 on IHW09023 cells loaded with BC hordein peptide (human; barley).
Test [3] concerns the target HLA-DQ2.5 on IHW09023 cells loaded with gamma 1 gliadin peptide (human; wheat).
Test [4] concerns the target HLA-DQ2.5 on IHW09023 cells loaded with gamma 2 gliadin peptide (human; wheat).
For test [5], the target named is HLA-DQ2.5 on IHW09023 cells loaded with gamma 3 gliadin peptide (human; wheat).
Test [6] has as its target HLA-DQ2.5 on IHW09023 cells loaded with gamma 4a gliadin peptide (human; wheat).
In test [7] the target is HLA-DQ2.5 on IHW09023 cells loaded with gamma 4d gliadin peptide (human; wheat).
Test [8] has as its target HLA-DQ2.5 on IHW09023 cells loaded with omega1/2 gliadin peptide (human; wheat).

B1: DQN034425 (antibody, V domains shown)
VH: QVQLVESGGGVVQPGRSLRLSCAASGFTFSSSYWMCWVRQAPGQGLEWMGCVYGGSDTTYYASWTKGRFTISRDNSKNTLYLQMNSLRAEDTAVYYCARDPLNYYYYGELNLWGQGTLVTVSS
VL: DIQMTQSPSSLSASVGDRVTITCQATENIYSGLAWYQQKPGKAPKLLIYYVSTLASGIPARFSGSGSGTDFTLTISSLEPEDFAVYYCQTYHDISNVTFGQGTKVEIK
Consider B1, for which, in test [1], the IC50, α1a gliadin TCR, 250 nM 33mer gliadin was determined as 0.0106 µg/mL; the IC50, α1b gliadin TCR, 250 nM 33mer gliadin worked out at 0.0464 µg/mL; the IC50, α2 gliadin TCR, 250 nM 33mer gliadin came out at 0.00175 µg/mL. This molecule had an IC50, BC hordein TCR, 250 nM BC hordein in test [2] greater than 20 µg/mL. Besides, the IC50, γ1 gliadin TCR, 250 nM γ1 gliadin in test [3] was greater than 20 µg/mL. This molecule also showed an IC50, γ2 gliadin TCR, 250 nM γ2 gliadin in test [4] greater than 20 µg/mL. The same molecule gave an IC50, γ3 gliadin TCR, 100 µM γ3 gliadin in test [5] of 3.1 µg/mL. In addition, the IC50, γ4a gliadin TCR, 25 µM γ4a gliadin in test [6] was greater than 20 µg/mL. Also, the IC50, γ4d gliadin TCR, 100 µM γ4d gliadin in test [7] was greater than 20 µg/mL. In addition, in test [8], the IC50, ω1 gliadin TCR, 25 µM ω1/2 gliadin was 0.00312 µg/mL and the IC50, ω2 gliadin TCR, 250 nM ω1/2 gliadin is greater than 0.5 µg/mL.
